The supplement of paper PMC11136658

System: peptide library, one residue held at a place counted from the Y acceptor
Experiment: relative phosphorylation of the sub-library (ratio to the mean residue at this position); higher = residue favoured
Summary of the method: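 Purified recombinant kinases were incubated for 90 min in 384-well plates with biotinylated Tyr-centred peptide library mixtures, each fixing one residue at one position from −5 to +5, plus 50 μM ATP with γ-32P-ATP. Peptides were captured on streptavidin membranes, rinsed and quantified by phosphorimaging and ImageQuant. Intensities were normalized per position by the sum of the 18 (or 16, Ser/Thr-free library) randomized residues and multiplied by that number. Values give phosphorylation relative to the mean randomized residue.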

Sequence of ROS1, construct: aa1883-end, human (P08922 1883-2347, looked up): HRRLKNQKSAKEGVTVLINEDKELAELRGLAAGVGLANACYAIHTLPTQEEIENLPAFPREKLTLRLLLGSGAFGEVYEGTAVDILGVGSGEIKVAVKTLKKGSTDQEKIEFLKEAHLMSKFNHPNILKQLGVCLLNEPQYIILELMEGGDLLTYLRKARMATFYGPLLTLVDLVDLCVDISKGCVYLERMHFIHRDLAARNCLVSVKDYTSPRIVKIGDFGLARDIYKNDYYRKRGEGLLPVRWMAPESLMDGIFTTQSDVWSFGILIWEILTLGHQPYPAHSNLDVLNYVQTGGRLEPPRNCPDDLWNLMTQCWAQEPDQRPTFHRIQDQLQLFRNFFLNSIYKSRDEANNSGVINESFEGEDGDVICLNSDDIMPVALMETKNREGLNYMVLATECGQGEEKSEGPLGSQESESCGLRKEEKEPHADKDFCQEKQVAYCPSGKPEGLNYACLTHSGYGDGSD
Sequence of NEK10, construct: aa266-895, human (Q6ZWH5 266-895, looked up): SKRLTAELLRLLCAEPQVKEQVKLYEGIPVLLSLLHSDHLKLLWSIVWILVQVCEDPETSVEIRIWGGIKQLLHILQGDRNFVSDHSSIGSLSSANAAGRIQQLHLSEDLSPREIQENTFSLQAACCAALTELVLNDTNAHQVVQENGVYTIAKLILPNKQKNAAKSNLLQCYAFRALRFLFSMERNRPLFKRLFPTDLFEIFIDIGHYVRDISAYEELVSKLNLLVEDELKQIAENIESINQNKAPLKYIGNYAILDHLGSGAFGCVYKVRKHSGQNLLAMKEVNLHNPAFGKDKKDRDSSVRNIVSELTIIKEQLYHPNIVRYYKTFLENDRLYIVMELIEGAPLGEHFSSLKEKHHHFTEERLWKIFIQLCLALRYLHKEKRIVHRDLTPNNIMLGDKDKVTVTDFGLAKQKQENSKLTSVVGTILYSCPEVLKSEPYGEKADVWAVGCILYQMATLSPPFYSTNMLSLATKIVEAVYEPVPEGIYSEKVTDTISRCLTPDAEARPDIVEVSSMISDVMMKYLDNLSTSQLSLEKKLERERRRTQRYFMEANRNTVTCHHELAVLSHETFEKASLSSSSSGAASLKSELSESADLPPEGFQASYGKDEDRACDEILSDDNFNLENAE

ROS1, construct: aa1883-end, human (from UniProt P08922)
relative phosphorylation
Conditions	at +1	at +2	at +3	at +4	at +5	at -1	at -2	at -3	at -4	at -5
A fixed	1.4	0.764	0.709	0.96	0.93	1.04	1.06	0.892	1.22	1.17
D fixed	0.482	0.396	0.211	0.611	0.583	1.09	0.882	0.994	1.09	0.993
E fixed	0.947	0.547	0.174	0.772	0.512	1.09	1.1	1.04	1.18	0.873
F fixed	1.06	1.19	1.65	1.19	1.47	0.882	0.738	0.932	0.878	0.868
G fixed	0.696	0.581	0.722	1.09	1.1	0.835	1.2	1.2	1.36	1.31
H fixed	1.07	0.954	1.67	1.13	0.93	1.21	1.07	1.09	0.888	0.99
I fixed	1.33	0.963	1.57	0.865	0.776	1.11	0.797	0.727	0.827	0.878
K fixed	0.501	1.3	0.858	1.27	1.3	0.592	1.01	0.968	1.04	1.08
L fixed	1.37	1.41	1.49	0.918	0.831	1.33	0.872	0.863	0.995	0.882
M fixed	1.36	1.17	1.33	1.07	0.873	0.975	0.733	0.828	0.855	0.922
N fixed	0.551	1.04	0.581	0.88	0.981	1.29	1.1	1.2	0.935	1.05
P fixed	0.446	0.904	0.532	0.972	1.64	1.45	1.29	1.23	1.19	1.24
Q fixed	1.09	0.94	0.669	1.14	0.958	0.964	1.16	0.915	1.11	0.963
R fixed	0.649	1.31	1.07	1.31	1.25	0.533	1.1	1.09	0.982	1.12
S fixed	1.26	1.01	0.793	0.979	1.2	0.975	1.18	1.17	0.898	0.967
T fixed	1.25	0.937	0.922	0.87	0.894	0.906	1.02	1.07	0.724	0.93
V fixed	1.42	1.08	1.27	0.988	0.622	0.976	0.906	0.824	0.859	0.879
W fixed	1.1	1.5	1.77	0.989	1.16	0.762	0.774	0.976	0.972	0.891
pThr fixed	0.802	0.447	0.162	0.305	0.359	0.848	0.859	0.877	0.86	0.871
pTyr fixed	1.06	0.646	0.306	0.529	0.409	1.74	1.03	1.15	1.09	0.896

NEK10, construct: aa266-895, human (from UniProt Q6ZWH5)
relative phosphorylation
Conditions	at +1	at +2	at +3	at +4	at +5	at -1	at -2	at -3	at -4	at -5
A fixed	0.35	0.54	0.755	0.959	0.812	0.916	0.855	1.05	1.13	1.08
D fixed	0.229	0.823	0.78	0.87	0.766	0.564	0.825	0.727	0.992	0.965
E fixed	0.173	0.582	0.836	0.71	0.776	0.798	0.772	0.745	0.897	0.981
F fixed	2.39	0.883	1.07	1.05	1.09	1.19	1.25	0.991	0.956	0.969
G fixed	0.353	1.31	1.12	1.1	1.08	1.01	1.12	0.981	1.16	1.17
H fixed	3.09	1.41	1.18	1.06	1.05	1.28	1.12	1.16	1.14	1.15
I fixed	0.888	0.45	0.571	0.794	0.692	0.801	0.637	0.801	0.805	0.869
K fixed	0.373	1.05	1.13	1.21	1.41	0.876	1.13	1.21	1.27	1.2
L fixed	1.8	0.577	0.754	0.944	0.887	1.21	1.06	1.09	0.852	0.826
M fixed	0.954	0.783	1.12	1	0.918	1.13	0.989	0.982	1.01	0.867
N fixed	0.565	1.55	1.24	1.02	1.07	0.796	1.4	1.02	0.84	0.987
P fixed	0.387	1.63	1.29	1.13	1.05	0.715	1.02	0.946	1.14	1.07
Q fixed	0.461	1.65	1.28	0.915	1.06	0.916	0.998	1.07	0.974	0.931
R fixed	0.451	1.25	1.34	1.29	1.49	1.05	1.19	1.55	1.19	1.31
V fixed	0.455	0.473	0.584	0.771	0.703	0.708	0.607	0.695	0.673	0.735
W fixed	3.08	1.04	0.934	1.17	1.15	2.04	1.03	0.981	0.971	0.901
pThr fixed	0.242	0.585	0.599	0.764	0.714	0.515	0.453	0.608	0.64	0.774
pTyr fixed	0.248	0.44	0.693	0.723	0.72	1.03	0.783	0.764	0.734	0.812
